Consider six molecules from patent US12365732 (23ANDME, dated 2025).

B1: mAb1.v7 Fab (Fab, V domains shown)
VH: EVQLVQSGAEVKKPGASVKVSCKASGFTFTNNWMHWVRQAPGQGLEWIGMIHPNSGITNINEKFKNRVTMTTDTSTSTAYMELRSLRSEDTAVYYCRSDGTYEGYFDYWGQGTLVTVSS
VL: DIQLTQSPSSLSASVGDRVTITCKASQNVGTAIVWYQQKPGKAPKVLIYSASTRYTGVPSRFSGSGSGTDFTLTISSLQPEDFATYYCQQYSSSPLTFGQGTKVEIK
B2: mAb1.v7.70 Fab (Fab, V domains shown)
VH: B1 VH with N32R, P53A, T101V
VL: B1 VL
notes: also called N32R/P52aA/T97V
B3: mAb1.v7.16 Fab (Fab, V domains shown)
VH: B1 VH with M34R, T101V
VL: B1 VL
notes: also called M34R/T97V
B4: mAb1.v7.2 Fab (Fab, V domains shown)
VH: B1 VH with M34R, P53F, T101V
VL: B1 VL
notes: also called M34R/P52aF/T97V
B5: mAb1.v7.48 Fab (Fab, V domains shown)
VH: B1 VH with N32R, P53H, T101V
VL: B1 VL
notes: also called N32R/P52aH/T97V
B6: mAb1.v7.9 Fab (Fab, V domains shown)
VH: B1 VH with M34R, P53M, T101V
VL: B1 VL
notes: also called M34R/P52aM/T97V

Changes are numbered by the printed parent chain. In names and notes the source's numbering stands.

In the first experiment the target is T1, hu-CD96 (soluble, isoform 2 extracellular domain) (human, UniProt P40200 22-516, biotinylated in Octet and blocking ELISA).
T1 construct: the assays name only hu-CD96; also called hCD96; biotinylated hu-CD96
T1 sequence: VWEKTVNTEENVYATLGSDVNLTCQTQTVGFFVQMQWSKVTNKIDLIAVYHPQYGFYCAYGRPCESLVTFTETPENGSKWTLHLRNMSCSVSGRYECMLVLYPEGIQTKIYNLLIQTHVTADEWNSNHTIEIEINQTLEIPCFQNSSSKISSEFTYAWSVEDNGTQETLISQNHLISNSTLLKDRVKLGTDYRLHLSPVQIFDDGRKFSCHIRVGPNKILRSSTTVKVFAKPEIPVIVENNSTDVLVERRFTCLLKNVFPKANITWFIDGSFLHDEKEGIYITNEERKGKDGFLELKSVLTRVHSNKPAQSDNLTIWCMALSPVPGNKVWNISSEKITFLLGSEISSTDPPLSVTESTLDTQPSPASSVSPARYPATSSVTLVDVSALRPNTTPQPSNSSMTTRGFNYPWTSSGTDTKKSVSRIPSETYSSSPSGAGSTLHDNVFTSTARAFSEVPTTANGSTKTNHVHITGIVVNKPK
Description: phage competition ELISA, soluble CD96 vs coated hu-CD96. As for the experimental part:
192 colonies from most stringent selections (biotinylated 0.1 nM of hu-CD96 or cy-CD96 with 1000× non-biotinylated human or cy-CD96) were grown in 400 µL 2YT with 4 µL helper phage M13KO7 overnight at 37° C. with shaking. After spinning down the pellet, the phage supernatant was diluted 1:1 with 2 nM hu-CD96, 20 nM cy-CD96 and ELISA buffer (0.5% BSA and 0.05% TWEEN®20 in PBS) in total […] and incubated for two hours at room temperature with agitation. The […] of mixture was transferred to hu-CD96 coated plate for 15 min to capture unbound phage. The plate was washed with wash buffer (0.05% TWEEN®20 in PBS), and HRP-conjugated anti-M13 antibody (Sino biological, Cat #11973-MM05-H-50) was added in ELISA buffer for 30 min. […] Enzymatic color development was stopped using TMB stop solution (VWR, Cat #95059-200). Plates were analyzed with a SpectraMax i3X plate reader (Molecular Devices). The % inhibition was calculated by the $OD450$ of wells with hu-CD96/cy-CD96 competitor divided by $OD450$ of wells with buffer alone. The lower % inhibition indicated higher phage $IC50$ against hu-CD96 or cy-CD96.
Selected top inhibition % phage variants from single spot competition were purified from culture supernatants. The optimal phage concentration was incubated with serially-diluted hu-CD96 or cy-CD96 in ELISA buffer in NUNC F plate for two hours. The […] of the mixture was transferred to hu-CD96 coated wells for 15 min to capture unbound phage. The plate was washed with wash buffer (0.05% TWEEN®20 in PBS), and HRP-conjugated anti-M13 antibody (Sino biological, Cat #11973-MM05-H-50) was added in ELISA buffer for 30 min. The plates were washed and developed as described above. The absorbance at 450 nm was plotted as a function of antigen concentration in solution to determine phage $IC50$.
(An ELISA detects its analyte on a solid surface through an enzyme-linked reagent.)
With B1, the “apparent IC50 (pooled screen)” value was 0.5 nM.
The IC50 is the concentration needed to halve the response being measured. Take B2: the IC50 was 0.14 nM.
Regarding B3, the IC50 amounted to 0.1 nM.
Molecule B4 came in with an IC50 of 0.08 nM.
For B5, the half-maximal inhibitory concentration (IC50) turned out to be 0.1 nM.
The same measure, in the same setting: to B6 belongs 0.11 nM.

In a further experiment the target is T1, hu-CD96 (soluble, isoform 2 …). Description: ELISA, blocks biotin-CD96 binding to coated hu-CD155-mFc. As for the experimental part: The selected 5 affinity matured Fab variants of mAb1.v7 Fab were assayed for blocking of human CD155 (hu-CD155) receptor by ELISA as follows. Briefly, 96-well MAXISORP® flat bottom plates (Thermofisher, Cat #439454) were coated overnight at 4° C. with 2 µg/mL goat anti-mouse Fc (Thermofisher, Cat #31168) in PBS. After removing the coating solution, unspecific binding was blocked with PBS containing 1% bovine serum albumin (BSA) and incubation at room temperature for one hour. Plates were then washed five times in PBS with 0.05% TWEEN®-20 (wash buffer) and added […] hu-CD155-mFc in PBS for 1 hour in room temperature. During blocking period, 50 µL/well of 4 nM biotinylated hu-CD96 or 40 nM biotinylated cy-CD96 with serial dilution of the Fab variants 50 µL/well (starting at 2 µM, 1:3 dilution) for two hours at room temperature with PBS containing 0.5% BSA and 0.05% Tween 20 (ELISA buffer) in NUNC F plate (Thermofisher, Cat #269620). Then transferred the antigen-antibody mix solution 80 µL/well into hu-CD155-mFc coated wells at room temperature for 15 min. Plates were then washed with wash buffer to which was added 50 µL/well Streptavidin poly-HRP (Thermofisher, Cat #21140) diluted 1:5000 in ELISA buffer at room temperature for one hour with agitation. […] Enzymatic color development was stopped with 50 µL/well of TMB stop solution (VWR, Cat #95059-200). Plates were analyzed with a SpectraMax i3X plate reader (Molecular Devices) at 450 nm. […] The blocking $IC50$ values for the mAbv1.7 and the 5 selected affinity matured Fab variants (mAb1.v7.2, mAb1.v7.9, mAb1.v7.16, mAb1.v7.48, mAb1.v7.70) are summarized in Table 10 (above).
Turning to B1, the “apparent IC50 (pooled screen)” value turned out to be 0.74 nM.
As for B2, the IC50 stood at 0.8 nM.
Turning to B3, the IC50 is 0.8 nM.
On to B4, for which the IC50 was 0.7 nM.
Turning to B5, the 50% inhibitory concentration (IC50) was 0.42 nM.
Molecule B6 displayed an IC50 of 0.42 nM.

A further experiment addresses T2, hu-CD96 Fc (human, biotinylated in Table 16).
T2 construct: also called biotinylated hu-CD96-Fc
Kind of experiment: SPR 25C, CD96-Fc on Protein A, Fab analyte. As for the experimental part:
Briefly, hu-CD96 Fc and cy-CD96 Fc were diluted at 10 µg/mL in HBS-P buffer (0.01 M HEPES pH 7.4, 0.15 M NaCl, 0.005% Surfactant P20) and applied to the Protein A chip at 30 µL/min flow rate for 60 s in flow cell 2 (FC2). Then flow 3-fold serial dilutions of mAb1.v7 Fab variants in HBS-P buffer (0.01 M HEPES pH 7.4, 0.15 M NaCl, 0.005% surfactant P20) from (0.4 nM) to high (1000 nM) were injected (flow rate: 30 µL/min) at 25° C. to both flow cell 1 (FC1) and flow cell 2 (FC2). The sensorgram was recorded and subject to reference and buffer subtraction before evaluating by BIA- CORE® 8K Evaluation Software (version 1.1.1.7442). Association rates ($kon$) and dissociation rates ($koff$) were calculated using a simple one-to-one Langmuir binding model. The equilibrium dissociation constant (K_D) was calculated as the ratio of $koff/kon$, and the values determined for the mAb1.v7 and the 5 Fab variants are summarized in Table 10 (below).
For orientation: Kd means the free concentration of one partner at which half of the binding sites on the other are occupied at equilibrium, for simple one-to-one binding. Read a low Kd as tighter binding. The koff is the first-order rate constant of dissociation. Lower therefore signals a long-lived complex. As usually defined, the kon is a measure of how fast the partners come together. Read a low kon as slow association. As to B1, the Kd stood at 44.6 nM, the koff amounted to 0.000817 s⁻¹ and the kon worked out at 18300 M⁻¹ s⁻¹.
B2 returned a Kd of 1.73 nM, a koff of 2.74e-05 s⁻¹ and a kon of 15900 M⁻¹ s⁻¹.
B3 had a Kd of 0.38 nM, a dissociation rate constant (koff) of 2.81e-06 s⁻¹ and an association rate constant (kon) of 7380 M⁻¹ s⁻¹.
In turn, B4 came in with an equilibrium dissociation constant (Kd) of 0.67 nM, a koff of 1.06e-05 s⁻¹ and a kon of 15800 M⁻¹ s⁻¹.
In turn, B5 had an equilibrium dissociation constant (Kd) of 0.795 nM, a koff of 1.26e-05 s⁻¹ and a kon of 15900 M⁻¹ s⁻¹.
Take B6: the affinity, expressed as Kd, was 5.05 nM; the koff was determined as 7.02e-05 s⁻¹; the kon is 13900 M⁻¹ s⁻¹.
